The values that follow come from patent US20250376511A1 (Sanofi, published 2025).

The target of assay [1] is T1, Human active C1s (Complement Technology) (human, UniProt P09871 16-688).
T1 sequence: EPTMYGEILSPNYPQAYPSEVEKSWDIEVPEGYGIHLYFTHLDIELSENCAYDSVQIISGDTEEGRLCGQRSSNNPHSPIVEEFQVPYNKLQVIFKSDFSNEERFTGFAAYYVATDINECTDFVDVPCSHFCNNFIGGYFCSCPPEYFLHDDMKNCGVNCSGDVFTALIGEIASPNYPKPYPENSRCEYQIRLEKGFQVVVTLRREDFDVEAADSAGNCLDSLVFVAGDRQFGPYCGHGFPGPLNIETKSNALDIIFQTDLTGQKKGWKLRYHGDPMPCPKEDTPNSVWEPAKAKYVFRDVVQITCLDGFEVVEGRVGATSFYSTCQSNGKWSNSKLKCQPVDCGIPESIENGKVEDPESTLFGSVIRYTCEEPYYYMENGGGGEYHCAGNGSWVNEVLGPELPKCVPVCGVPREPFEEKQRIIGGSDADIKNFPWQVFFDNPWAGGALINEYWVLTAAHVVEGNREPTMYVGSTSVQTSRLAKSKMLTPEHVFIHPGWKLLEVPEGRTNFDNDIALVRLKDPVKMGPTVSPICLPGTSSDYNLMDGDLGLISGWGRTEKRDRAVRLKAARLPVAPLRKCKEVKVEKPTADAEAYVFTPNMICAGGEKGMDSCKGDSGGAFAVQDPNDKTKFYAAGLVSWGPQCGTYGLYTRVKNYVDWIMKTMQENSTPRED
Kind of assay: cell-based or functional assay.

A further assay concerns the target T2, cynomolgus TfR (cynomolgus, UniProt H9EXL1 89-760 (rhesus entry)).
T2 construct: also called Cyno TfR; cTfR
Kind of assay: affinity of bispecific purified from CHO cells (SPR; details not restated).

Assay [2] has as its target T3, His-tagged recombinant human TfR (produced in-house) (human, UniProt P02786 89-760).
T3 construct: also called hTfR; transferrin receptor 1
The assay is described as above.

The target of the next assay is T4, cynomolgus aC1s (cynomolgus, UniProt A0A2K5VQX9 16-685).
T4 construct: also called Cyno aC1s; caC1s
T4 sequence: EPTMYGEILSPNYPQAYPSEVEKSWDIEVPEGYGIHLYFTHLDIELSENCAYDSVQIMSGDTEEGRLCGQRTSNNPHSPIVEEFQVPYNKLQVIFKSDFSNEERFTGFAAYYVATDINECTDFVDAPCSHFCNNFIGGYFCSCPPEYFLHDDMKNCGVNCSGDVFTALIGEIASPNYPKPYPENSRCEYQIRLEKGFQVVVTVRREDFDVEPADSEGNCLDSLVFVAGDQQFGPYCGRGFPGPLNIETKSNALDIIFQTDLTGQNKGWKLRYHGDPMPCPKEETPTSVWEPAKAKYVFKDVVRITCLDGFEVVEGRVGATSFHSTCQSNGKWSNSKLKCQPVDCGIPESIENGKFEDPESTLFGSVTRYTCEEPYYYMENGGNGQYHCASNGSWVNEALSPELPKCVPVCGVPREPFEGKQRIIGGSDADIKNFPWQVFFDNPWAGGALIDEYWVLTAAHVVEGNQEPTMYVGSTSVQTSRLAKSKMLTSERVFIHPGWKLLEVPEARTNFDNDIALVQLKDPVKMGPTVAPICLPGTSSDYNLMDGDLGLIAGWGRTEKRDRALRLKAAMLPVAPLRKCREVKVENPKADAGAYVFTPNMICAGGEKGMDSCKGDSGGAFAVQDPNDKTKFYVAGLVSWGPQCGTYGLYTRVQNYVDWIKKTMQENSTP
Described as above.

The target of assay [3] is T1, Human active C1s (Complement Technology). The description is as above.

T2 sequence (chain, as listed by the source): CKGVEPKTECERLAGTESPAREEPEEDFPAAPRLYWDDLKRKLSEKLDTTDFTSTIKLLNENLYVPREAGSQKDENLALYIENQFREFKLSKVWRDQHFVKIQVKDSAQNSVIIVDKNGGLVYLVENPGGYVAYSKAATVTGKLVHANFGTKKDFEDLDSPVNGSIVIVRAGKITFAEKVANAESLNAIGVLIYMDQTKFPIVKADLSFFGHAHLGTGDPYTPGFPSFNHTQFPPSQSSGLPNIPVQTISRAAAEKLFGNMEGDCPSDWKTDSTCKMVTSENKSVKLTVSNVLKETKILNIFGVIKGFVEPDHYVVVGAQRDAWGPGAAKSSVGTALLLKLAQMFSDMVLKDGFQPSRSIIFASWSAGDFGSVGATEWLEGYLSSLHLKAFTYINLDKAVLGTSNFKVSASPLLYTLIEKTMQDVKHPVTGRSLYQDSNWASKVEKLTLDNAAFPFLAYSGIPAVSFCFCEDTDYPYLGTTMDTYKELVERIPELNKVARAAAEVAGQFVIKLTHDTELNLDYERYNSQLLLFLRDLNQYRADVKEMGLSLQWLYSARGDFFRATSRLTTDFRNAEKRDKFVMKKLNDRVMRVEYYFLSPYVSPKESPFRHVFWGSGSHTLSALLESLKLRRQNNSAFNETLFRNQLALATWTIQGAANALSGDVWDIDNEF
T3 sequence (P02786 89-760 limits assumed): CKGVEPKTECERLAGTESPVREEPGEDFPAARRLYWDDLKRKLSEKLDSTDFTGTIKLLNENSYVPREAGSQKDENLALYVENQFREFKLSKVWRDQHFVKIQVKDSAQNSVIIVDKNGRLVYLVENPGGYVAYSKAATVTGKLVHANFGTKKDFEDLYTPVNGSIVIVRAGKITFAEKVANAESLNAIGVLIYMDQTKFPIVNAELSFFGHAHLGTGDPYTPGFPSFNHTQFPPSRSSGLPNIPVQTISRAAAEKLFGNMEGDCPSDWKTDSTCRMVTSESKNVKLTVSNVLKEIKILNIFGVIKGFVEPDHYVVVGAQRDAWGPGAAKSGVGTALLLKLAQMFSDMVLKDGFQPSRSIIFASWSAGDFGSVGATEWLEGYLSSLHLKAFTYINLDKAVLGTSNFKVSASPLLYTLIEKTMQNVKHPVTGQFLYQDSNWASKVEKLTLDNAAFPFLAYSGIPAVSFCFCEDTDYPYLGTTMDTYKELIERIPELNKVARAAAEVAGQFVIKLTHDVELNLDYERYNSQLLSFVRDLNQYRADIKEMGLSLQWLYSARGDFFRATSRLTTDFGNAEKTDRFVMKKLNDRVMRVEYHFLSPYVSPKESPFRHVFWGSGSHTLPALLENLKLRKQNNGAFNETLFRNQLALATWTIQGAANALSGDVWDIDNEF

B1: bispecific anti-aC1s (L4H5)/anti-TfR (531v25.v6) antibody (bispecific antibody, human IgG4 S228P, kappa)
heavy 1: QVQLVQSGAEVKKPGASVKLSCTASGFNIKDDYIHWVKEAPGQGLEWIGRIDPADGHTKYAPKFQVKVTITAATSTSTAYLQLSSLRSEDTAVYYCARYGYGREVFDYWGQGTTVTVSSASTKGPSVFPLAPCSRSTSESTAALGCLVKDYFPEPVTVSWNSGALTSGVHTFPAVLQSSGLYSLSSVVEVPSSSLGTKTYTCNVDHKPSNTKVDERVESDYGPPCPPCPAPEFEGGPSVFLFPPKPKDTLMISRTPEVTCVVVDVSQEDPEVQFNWYVDGVEVHNAKTKPREEQFNSTYRVVSVLTVLHQDWLNGKEYKCKVSNKGLPSSIEKTISKAKGQPREPQVCTLPPSQEEMTKNQVSLSCAVKGFYPSDIAVEWESNGQPENNYKTTPPVLDSDGSFFLVSRLTVDKSRWQEGNVFSCSVLHEALHSRFTQKSLSLSLG
light 1: DIVMTQSPDSLAVSLGERATISCKSSQSVDYEGDSYLNWYQKKPGQPPKLLIYDASNLESGVPDRFSGSGSGTDFTLTISSLQAEDVAVYYCQQSNEDPWTFGQGTKVEIKRTVAAPAVFIFPPSKKQLKSGTASVVCLLKNFYPREAKVQWKVDNALQSGNSQESVTEQDSKDSTYSLSSTLTLSKADYEKHKVYACEVTHQGLSSPVTKSFNRGEC
heavy 2: QVQLVQSGAEVKKPGASVKVSCKASGYTFTRYYLNWVRKAPGQGLEWIGMIDPSVSETHYAQKFQGRATLTVDKSTSTAYMELSSLRSEDTAVYYCSQIRLPYYYAMDSWGQGTTVTVSSASTKGPSVFPLAPCSRSTSESTAALGCLVKDYFPEPVTVSWNSGALTSGVHTFPAVLQSSGLYSLSSVVTVPSSSLGTKTYTCNVDHKPSNTKVDKRVESKYGPPCPPCPAPEFEGGPSVFLFPPKPKDTLMISRTPEVTCVVVDVSQEDPEVQFNWYVDGVEVHNAKTKPREEQFNSTYRVVSVLTVLHQDWLNGKEYKCKVSNKGLPSSIEKTISKAKGQPREPQVYTLPPCQEEMTKNQVSLWCLVKGFYPSDIAVEWESNGQPENNYKTTPPVLDSDGSFFLYSRLTVDKSRWQEGNVFSCSVLHEALHSHYTQKSLSLSLG
light 2: DIQMTQSPSSLSASVGDRVTITCRASQDIESFLNWYQEKPGKAPKLLIYYTSRLQSGVPSRFSGSGSGTDYTLTISSLQPEDFATYYCQQGNTLPRTFGGGTKVEIKRTVAAPSVFIFPPSDEQLKSGTASVVCLLNNFYPREAKVQWKVDNALQSGNSQESVTEQDSKDSTYSLSSTLTLSKADYEKHKVYACEVTHQGLSSPVTKSFNRGEC
notes: Purified from CHO cells; monovalent for aC1s
For orientation: Kd means the equilibrium constant for the complex coming apart. Consider B1, for which the “IC50, Wieslab Complement Pathway Assay” value in assay [1] was found to be 1.04 µg/mL. In addition, in assay [1], the “IC90, Wieslab Complement Pathway Assay” value amounted to 7.55 µg/mL. Also, the Kd was 72.5 nM with cynomolgus TfR, 39.3 nM in assay [2], 0.252 nM in the assay with cynomolgus aC1s and 2.26 nM in assay [3].

B2: bispecific anti-aC1s (L2)/anti-TfR (531v25.v6) antibody (bispecific antibody, human IgG4 S228P, kappa)
heavy 1: QVQLVQSGAEVKKPGASVKLSCTASGFNIKDDYIHWVKEAPGQGLEWIGRIDPADGHTKYAPKFQVKVTITADTSTSTAYLELSSLRSEDTAVYYCARYGYGREVFDYWGQGTTVTVSSASTKGPSVFPLAPCSRSTSESTAALGCLVKDYFPEPVTVSWNSGALTSGVHTFPAVLQSSGLYSLSSVVEVPSSSLGTKTYTCNVDHKPSNTKVDERVESDYGPPCPPCPAPEFEGGPSVFLFPPKPKDTLMISRTPEVTCVVVDVSQEDPEVQFNWYVDGVEVHNAKTKPREEQFNSTYRVVSVLTVLHQDWLNGKEYKCKVSNKGLPSSIEKTISKAKGQPREPQVCTLPPSQEEMTKNQVSLSCAVKGFYPSDIAVEWESNGQPENNYKTTPPVLDSDGSFFLVSRLTVDKSRWQEGNVFSCSVLHEALHSRFTQKSLSLSLG
light 1: DIVMTQSPDSLAVSLGERATISCKSSQSVDYEGDSYLNWYQKKPGQPPKLLIYDASNLESGVPDRFSGSGSGTAFTLTISSLQAEDVAVYYCQQSNEDPWTFGQGTKVEIKRTVAAPAVFIFPPSKKQLKSGTASVVCLLKNFYPREAKVQWKVDNALQSGNSQESVTEQDSKDSTYSLSSTLTLSKADYEKHKVYACEVTHQGLSSPVTKSFNRGEC
heavy 2: QVQLVQSGAEVKKPGASVKVSCKASGYTFTRYYLNWVRKAPGQGLEWIGMIDPSVSETHYAQKFQGRATLTVDKSTSTAYMELSSLRSEDTAVYYCSQIRLPYYYAMDSWGQGTTVTVSSASTKGPSVFPLAPCSRSTSESTAALGCLVKDYFPEPVTVSWNSGALTSGVHTFPAVLQSSGLYSLSSVVTVPSSSLGTKTYTCNVDHKPSNTKVDKRVESKYGPPCPPCPAPEFEGGPSVFLFPPKPKDTLMISRTPEVTCVVVDVSQEDPEVQFNWYVDGVEVHNAKTKPREEQFNSTYRVVSVLTVLHQDWLNGKEYKCKVSNKGLPSSIEKTISKAKGQPREPQVYTLPPCQEEMTKNQVSLWCLVKGFYPSDIAVEWESNGQPENNYKTTPPVLDSDGSFFLYSRLTVDKSRWQEGNVFSCSVLHEALHSHYTQKSLSLSLG
light 2: DIQMTQSPSSLSASVGDRVTITCRASQDIESFLNWYQEKPGKAPKLLIYYTSRLQSGVPSRFSGSGSGTDYTLTISSLQPEDFATYYCQQGNTLPRTFGGGTKVEIKRTVAAPSVFIFPPSDEQLKSGTASVVCLLNNFYPREAKVQWKVDNALQSGNSQESVTEQDSKDSTYSLSSTLTLSKADYEKHKVYACEVTHQGLSSPVTKSFNRGEC
notes: as for B1
For B2, the “IC50, Wieslab Complement Pathway Assay” value in assay [1] was found to be 1.37 µg/mL. Besides, in assay [1], the “IC90, Wieslab Complement Pathway Assay” value came to 10.2 µg/mL. The Kd with cynomolgus TfR was 52.8 nM; in assay [2], 29.9 nM; with cynomolgus aC1s it was 0.243 nM; in assay [3], 3.19 nM.

B3: bispecific anti-aC1s (L2H5)/anti-TfR (531v25.v6) antibody (bispecific antibody, human IgG4 S228P, kappa)
heavy 1: QVQLVQSGAEVKKPGASVKLSCTASGFNIKDDYIHWVKEAPGQGLEWIGRIDPADGHTKYAPKFQVKVTITAATSTSTAYLQLSSLRSEDTAVYYCARYGYGREVFDYWGQGTTVTVSSASTKGPSVFPLAPCSRSTSESTAALGCLVKDYFPEPVTVSWNSGALTSGVHTFPAVLQSSGLYSLSSVVEVPSSSLGTKTYTCNVDHKPSNTKVDERVESDYGPPCPPCPAPEFEGGPSVFLFPPKPKDTLMISRTPEVTCVVVDVSQEDPEVQFNWYVDGVEVHNAKTKPREEQFNSTYRVVSVLTVLHQDWLNGKEYKCKVSNKGLPSSIEKTISKAKGQPREPQVCTLPPSQEEMTKNQVSLSCAVKGFYPSDIAVEWESNGQPENNYKTTPPVLDSDGSFFLVSRLTVDKSRWQEGNVFSCSVLHEALHSRFTQKSLSLSLG
light 1: DIVMTQSPDSLAVSLGERATISCKSSQSVDYEGDSYLNWYQKKPGQPPKLLIYDASNLESGVPDRFSGSGSGTAFTLTISSLQAEDVAVYYCQQSNEDPWTFGQGTKVEIKRTVAAPAVFIFPPSKKQLKSGTASVVCLLKNFYPREAKVQWKVDNALQSGNSQESVTEQDSKDSTYSLSSTLTLSKADYEKHKVYACEVTHQGLSSPVTKSFNRGEC
heavy 2: QVQLVQSGAEVKKPGASVKVSCKASGYTFTRYYLNWVRKAPGQGLEWIGMIDPSVSETHYAQKFQGRATLTVDKSTSTAYMELSSLRSEDTAVYYCSQIRLPYYYAMDSWGQGTTVTVSSASTKGPSVFPLAPCSRSTSESTAALGCLVKDYFPEPVTVSWNSGALTSGVHTFPAVLQSSGLYSLSSVVTVPSSSLGTKTYTCNVDHKPSNTKVDKRVESKYGPPCPPCPAPEFEGGPSVFLFPPKPKDTLMISRTPEVTCVVVDVSQEDPEVQFNWYVDGVEVHNAKTKPREEQFNSTYRVVSVLTVLHQDWLNGKEYKCKVSNKGLPSSIEKTISKAKGQPREPQVYTLPPCQEEMTKNQVSLWCLVKGFYPSDIAVEWESNGQPENNYKTTPPVLDSDGSFFLYSRLTVDKSRWQEGNVFSCSVLHEALHSHYTQKSLSLSLG
light 2: DIQMTQSPSSLSASVGDRVTITCRASQDIESFLNWYQEKPGKAPKLLIYYTSRLQSGVPSRFSGSGSGTDYTLTISSLQPEDFATYYCQQGNTLPRTFGGGTKVEIKRTVAAPSVFIFPPSDEQLKSGTASVVCLLNNFYPREAKVQWKVDNALQSGNSQESVTEQDSKDSTYSLSSTLTLSKADYEKHKVYACEVTHQGLSSPVTKSFNRGEC
notes: as for B1
Turning to B3, the “IC50, Wieslab Complement Pathway Assay” value in assay [1] turned out to be 1.23 µg/mL. For the same molecule, in assay [1], the “IC90, Wieslab Complement Pathway Assay” value amounted to 9.7 µg/mL. In addition, the Kd was determined as 48.9 nM with cynomolgus TfR, 34.3 nM in assay [2], 0.315 nM in the assay with cynomolgus aC1s and 2.64 nM in assay [3].
